In PMC8849478, “Scalable manufacturing platform for the production of methemoglobin as a non-oxygen carrying control material in studies of cell-free hemoglobin solutions” (PLoS ONE, 2022):

B1: bovine methemoglobin (complex)
chain 1: not shown
chain 2: not shown
notes: hemoglobin alpha chain, bovine, from whole bovine blood; hemoglobin beta chain, bovine, from whole bovine blood; same chains as m1; the heme iron is oxidised to the ferric state (HbFe3+); purity 99.7 ± 0.2%; also called metbHb; bovine metHb; copies: 2 + 2
B2: bovine hemoglobin (complex)
chain 1: not shown
chain 2: not shown
notes: hemoglobin alpha chain, bovine, from whole bovine blood; hemoglobin beta chain, bovine, from whole bovine blood; alpha2beta2 tetramer with ferrous heme (HbFe2+); in equilibrium with alpha-beta dimers; also called bHb; unmodified bHb; source: purified from bovine red blood cells (lysis, tangential flow filtration); copies: 2 + 2

Molecular target: the molecule itself
Assay: SEC; tetramer to dimers; SEC-HPLC of samples at 1.25, 2.5, 5, 10 and 20 μM (heme basis) after incubation in 0.1 M PBS pH 7.4 at 4°C for one week; fraction of tetramers by deconvolution, Kd from the intercept of the linearised plot (Eq 3)

Protein | Kd [nM]
B1 | 550
B2 | 500
